This passage reports Kd results from US20250144202A1 (KAIMI BIOMEDICINE CHENGDU, published 2025).

As usually defined, the Kd is a measure of binding affinity in units of concentration. High values mean a looser complex, low ones a tighter complex.

The target of the assay is T1, FcγRIIA protein (UniProt P12318 36-218).
T1 construct: also called CD32a
T1 sequence: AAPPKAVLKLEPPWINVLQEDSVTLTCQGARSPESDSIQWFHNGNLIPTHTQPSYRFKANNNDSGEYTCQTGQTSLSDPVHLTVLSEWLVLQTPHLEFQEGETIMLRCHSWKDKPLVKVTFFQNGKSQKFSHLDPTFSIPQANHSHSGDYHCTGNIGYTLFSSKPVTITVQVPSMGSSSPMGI
Description: BLI, multi-concentration (5000 to 312.5 nM of the Fc variant). (In BLI a coated tip is dipped into the sample, and binding shifts an interference pattern.)

B1: Seq2-Sf9 (murine IgG1 Fc variant with three mutations, alanine at positions 223, 228 and 230, expressed in Sf9 insect cells) (other)
chain: VDKKIVPADCGCAPCICAVPEVSSVFIFPPKPKDVLTITLTPKVTCVVVDISKDDPEVQFSWFVDDVEVHTAQTQPREEQFNSTFRSVSELPIMHQDWLNGKEFKCRVNSAAFPAPIEKTISKTKGRPKAPQVYTIPPPKEQMAKDKVSLTCMITDFFPEDITVEWQWNGQPAENYKNTQPIMDTDGSYFVYSKLNVQKSNWEAGNTFTCSVLHEGLHNHHTEKSLSHSPGL
notes: Fc fragment alone, expressed from the pFastBacHTa-gp64 vector in Sf9 cells and purified by Protein A; about 26 kDa on SDS-PAGE; also called mouse Fc with three mutations
B1 returned an equilibrium dissociation constant (Kd) of 789 nM.

B2: Seq3-Sf9 (murine IgG1 Fc variant with five mutations, alanine at 223, 228 and 230, leucine at 330, glutamic acid at 332, expressed in Sf9 insect cells) (other)
chain: VDKKIVPADCGCAPCICAVPEVSSVFIFPPKPKDVLTITLTPKVTCVVVDISKDDPEVQFSWFVDDVEVHTAQTQPREEQFNSTFRSVSELPIMHQDWLNGKEFKCRVNSAAFPLPEEKTISKTKGRPKAPQVYTIPPPKEQMAKDKVSLTCMITDFFPEDITVEWQWNGQPAENYKNTQPIMDTDGSYFVYSKLNVQKSNWEAGNTFTCSVLHEGLHNHHTEKSLSHSPGL
notes: Fc fragment alone, expressed from the pFastBacHTa-gp64 vector in Sf9 cells and purified by Protein A; about 26 kDa on SDS-PAGE; also called mouse Fc with five mutations
B2 had a Kd of 450 nM.
